In one experiment the test system is HCC1569 xenograft. As to the kind of experiment: Tumour xenograft. The class given is in vivo, mice. The conditions noted are these: HER2 positive breast cancer, heterogeneous B7-H4. On the procedure: (§1) Tumour xenografts were prepared on mice using the following cancer cell lines: • OVCAR4 (Cisplatin refractory ovarian cancer; high B7-H4 expression) • HCC1569 (HER2 positive breast cancer; heterogeneous B7-H4 expression) • MDA-MB-468 (Triple negative breast cancer; low B7-H4 expression)

Another experiment deals with OVCAR4 xenograft. In words: Tumour xenograft. The class given is in vivo, mice. The following applies: cisplatin refractory ovarian cancer, high B7-H4. On the procedure: as §1
Another experiment concerns MDA-MB-468 xenograft. In words: Tumour xenograft. The experiment is classed as in vivo, mice. The following applies: triple negative breast cancer, low B7-H4. On the procedure: as §1
The next experiment deals with Zr75-1. In words: E02-GL MESF on cell line. The class given is cell-based.
Experiment [1] deals with HT29-huB7-H4 Clone 4 and HT29-huB7-H4 Clone 26. As to the kind of experiment: Flow cytometry binding. The class given is cell-based, human. The source says: (§2) Flow cytometry was used to measure binding of antibody E02-INT and E02-GL-SG3932 to the human breast cancer cell lines MX-1 and MDA-MB-468, and to engineered HT29 colon cancer cells stably expressing human B7-H4.
On the technique in general: Flow cytometry measures light scatter and fluorescence of single cells or particles in a stream.

In the next experiment the test system is MDA-MB-468 cells. As to the kind of experiment: Flow cytometry binding. The experiment is classed as cell-based, human. The following applies: endogenously-expressed B7-H4.
Source text: as §2

The next experiment deals with MX-1 cells. In words: Flow cytometry binding. The following applies: endogenously-expressed B7-H4. The experiment is classed as cell-based, human.
Source text: as §2

Experiment [2] has as its system HT29-huB7-H4 Clone 26 cells. As to the kind of experiment: Confocal colocalization with LAMP1 and EEA1. The experiment is classed as cell-based, human. The conditions noted are these: 24 hours, 5 μg/mL. The source says:
Confocal microscopy was used to determine intracellular trafficking of E02-INT by measuring co-localization with the early endosomal marker, Early Endosome Antigen 1 (EEA1) and the lysosomal marker, lysosomal-associated membrane protein 1 (LAMP1).

Experiment [3] relates to hB7-H4 expressing HT29 cells. In words: Flow cytometry binding. The class given is cell-based, human. The following applies: 31, 156 and 78 ng/ml; compared with 1D11. On the procedure: (§3) Cells were detached from tissue culture flasks by accutase (Gibco, Paisley, UK), pelleted by centrifugation, and resuspended in ice cold DPBS (Gibco, Paisley, UK). Viable cells were counted by trypan blue exclusion using a haemocytometer. Cell densities were adjusted to 5×10^6 cells/mL in DPBS. 100 μL of the cell suspension (5×10^5 cells) was added to 96-well V-bottomed plates and placed on ice. Then, the cells were incubated with Live/Dead fixable violet stain (ThermoFisher Scientific, Loughborough, UK) for 20 minutes on ice. Following a wash with flow cytometry buffer (eBiosciences, Hatfield, UK), the cells were incubated on ice for 30 minutes in 100 μL flow cytometry buffer alone (unstained control cells) or supplemented with AF647-labelled anti-B7H4 antibodies (e.g. E02-GL or 1D11) or isotype R347 at a concentration ranging from 10 µg/ml to 78 ng/ml. […] FlowJo cytometry analysis software (Treestar, Ashland, OR, USA) was used to quantify antibody binding to cells as follows. Live, single cells were gated based on forwards scatter, side scatter, and Live/Dead violet fluorescence intensity and the AF647 geometric mean fluorescence intensity (MFI) was determined. […]

The subject of another experiment is SK-BR-3 cells. As to the kind of experiment: Flow cytometry binding. The experiment is classed as cell-based, human. The following applies: 31, 156 and 78 ng/ml; compared with 1D11. Here is the method:
as §3

A further experiment deals with HEK293 JI parental. As to the kind of experiment: E02-GL MESF on cell line. The class given is cell-based. The following applies: B7-H4 negative.
Experiment [4] concerns SKBR3 cell line (target cell). As to the kind of experiment: ADCC with primary human NK cells. The experiment is classed as cell-based. The following applies: 1 μg/mL; NK cells from healthy donors. The source says:
When IgG antibodies bind cell surface antigens via their Fab domains, the Fc portion of the antibodies can engage with FcγRIIIa on natural killer cells. The interaction of the Fc domain with FcγRIIIa induces cross-linking of the FcγRs, which triggers the release of cytotoxic granules containing perforin and granzymes, leading to the death of the target cell, a process called antibody-dependent cellular cytotoxicity (ADCC). The potential of antibody E02-INT and E02-GL-SG3932 to initiate ADCC activity was evaluated utilizing isolated primary human NK cells and the human breast cancer SKBR3 cell line as the target cell.
Next, human breast cancer SK-BR-3 cells were co-cultured with NK cells isolated from six healthy donors in the presence of 1 μg/mL E02-GL-SG3932, antibody intermediate E02-INT, isotype-matched control antibody NIP228, and the isotype-matched control ADC NIP228-SG3932 (FIG. 37). ADCC activity was evaluated by Incycte® Annexin V Dye binding of extracellular surface exposure of phosphatidyl serine on apoptotic cells, yielding a bright and stable red fluorescent signal. The fold-change was based on maximum cell death of non-drug treated NK/SK-BR-3 co-cultured cells. Maximum cell death was calculated by dividing the average red objects in experimental wells by the average maximum cell death in Staurosporine treated SK-BR-3 cells.

A further experiment concerns SKBR3. As to the kind of experiment: E02-GL MESF on cell line. The experiment is classed as cell-based, human.
Experiment [5] concerns live cells (B7-H4 on membrane). In words: Internalisation kinetics in live cells (AF647 label). The experiment is classed as cell-based. The following applies: AF647 conjugate; co-visualisation with Lamp1-AF488. Here is the method: E02-GL conjugated to fluorescence marker AF647 was used to treat live cells. At 0 mins following treatment, clusters of fluorescence were noted on the cell membranes (indicative of binding to B7-H4 present on the membrane).

Two molecules from patent US20240239894A1, “THERAPEUTIC BINDING MOLECULES” (MedImmune Limited, priority 2020, published 2024) can be followed below.

B1: E02-GL-SG3249: clone E02-GL (Maia heavy chain backbone) conjugated to the PBD cytotoxin SG3249 (conjugate)
heavy: QVQLQQWGAGLLKPSETLSLACTVYGGSFSGYYWNWIRQPPGKGLEWIGEINHSGSTSYNPSLKSRVTISVDTSKNQFSLKLSSVTAADTAVYYCARVLYNWNVDSWGQGTLVTVSSASTKGPSVFPLAPSSKSTSGGTAALGCLVKDYFPEPVTVSWNSGALTSGVHTFPAVLQSSGLYSLSSVVTVPSSSLGTQTYICNVNHKPSNTKVDKRVEPKSCDKTHTCPPCPAPELLGGPSCVFLFPPKPKDTLMISRTPEVTCVVVDVSHEDPEVKFNWYVDGVEVHNAKTKPREEQYNSTYRVVSVLTVLHQDWLNGKEYKCKVSNKALPAPIEKTISKAKGQPREPQVYTLPPSREEMTKNQVSLTCLVKGFYPSDIAVEWESNGQPENNYKTTPPVLDSDGSFFLYSKLTVDKSRWQQGNVFSCSVMHEALHNHYTQKSLSLSPGK
light: DIQMTQSPSSLSASVGDRVTITCRASQDIRNDVGWYQQKPGKAPKRLIYAASRLQSGVPSRFSGSGSGTEFTLTISSLQPEDFATYYCLQHNSYPRTFGQGTKVEIKRTVAAPSVFIFPPSDEQLKSGTASVVCLLNNFYPREAKVQWKVDNALQSGNSQESVTEQDSKDSTYSLSSTLTLSKADYEKHKVYACEVTHQGLSSPVTKSFNRGEC
In the case of B1, the “tumour volume versus vehicle” value in the experiment on HCC1569 xenograft, with OVCAR4 xenograft and in the experiment on MDA-MB-468 xenograft was “significant decrease in tumour volume” each time.

B2: E02-GL: germlined ZY0EQD-E02, VH SEQ ID NO: 45, VL SEQ ID NO: 34; antibody intermediate of E02-GL-SG3932 (antibody, V domains shown)
VH: QVQLQQWGAGLLKPSETLSLACTVYGGSFSGYYWNWIRQPPGKGLEWIGEINHSGSTSYNPSLKSRVTISVDTSKNQFSLKLSSVTAADTAVYYCARVLYNWNVDSWGQGTLVTVSS
VL: DIQMTQSPSSLSASVGDRVTITCRASQDIRNDVGWYQQKPGKAPKRLIYAASRLQSGVPSRFSGSGSGTEFTLTISSLQPEDFATYYCLQHNSYPRTFGQGTKVEIK
As to B2, the “E02-GL MESF” value in the experiment with Zr75-1 is given as 80,699 MESF; in the experiment with HEK293 JI parental it was 3,266 MESF; with SKBR3, 78,343 MESF. In addition, the cellular binding result in [1] is listed as “bound similarly”; in the experiment on MDA-MB-468 cells it was “bound”; in the experiment with MX-1 cells, “bound”. In addition, in experiment [2], the “intracellular trafficking after internalization” value is on record as “trafficked to the lysosomal compartment”. Further, the “binding to B7-H4 expressed on cancer cells” value (in experiment [3]; in the experiment on SK-BR-3 cells) was “superior binding” in each case. Also, the “ADCC activity beyond untreated co-cultured cells” value in experiment [4] is listed as “significant increase in ADCC activity”. The “internalisation of bound antibody” value in experiment [5] is “internalised by endocytosis”.
